Assay results reported in the supplement of paper PMC10567573.

B1: RHOBTB3 (parent)
chain: QLQSMPSRELASMNLDIVDLLKKA
B2: KRT71 (parent)
chain: ELRNVQDVVEDYKKRYEEEINKRT

Variants of: B1
Assay: protein stability index of a GFP-peptide fusion (GPS, HEK-293T) (PSI 1-6); higher = more stable
Details: c terminus: a fixed tail appended
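Also: lentivirally expressed fusions sorted by FACS into six bins by GFP to DsRed ratio, PSI derived from sequencing read proportions per bin multiplied by bin number.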

Protein stability index of substitutions, site by site:
M5: S 3.76, F 3.33, H 3.43, Y 2.01, Q 3.69, I 2.95, A 3.04, T 3.94, L 3.88, D 3.78, G 2.58, V 3.32, C 3.23, R 3.46, P 3.54, E 3.54, W 2.07, N 2.78, K 4.06
R8: Y 2.66, M 3.2, W 2.58, V 3.83, C 3.85, A 4.22, I 2.33, F 2.65, G 3.71, P 3.22, D 4.11, H 3.94, Q 3.85, S 3.99, L 2.35, K 3.38, E 4.28
Q3: I 3.18, M 3.35, V 2.98, W 2.48, F 2.62, E 3.7, T 3.38, R 4.02, Y 2.75, D 3.5, G 3.85, P 4.39, N 2.56, L 2.68, S 3.44
L2: P 4.72, T 3.55, M 3.83, N 3.71, F 3.04, E 4.29, R 3.47, W 3.31, K 3.18, C 4.45, A 3.21, Y 4.34, Q 3.78, D 4, V 2.77, I 3.16
E9: P 2.78, N 3.4, M 2.31, F 2.92, A 3.1, K 2.27, C 2.7, T 3.61, H 2.99, R 2.15, Q 2.7, L 2.7, I 2.44, G 2.9, V 3.04, Y 3.14, S 3.6, D 2.63
S7: Q 3.77, W 5, I 2.42, T 4.35, M 2.51, E 3.48, A 3.59, N 2.98, R 4.13, P 4.46, C 2.69, K 2.97, G 2.66, D 3.9, Y 3, L 2.56, H 4.55
Q1: M 3.38, W 2.62, A 3.43, V 2.98, I 2.71, K 4.12, N 3.65, Y 2.98, R 3.72, F 2.95, H 2.92, P 4.72, E 3.01, G 3.51, L 2.55, S 2.75, T 3.66, C 2.86
P6: C 2.5, V 2.14, F 1.93, G 2.91, A 3.19, D 3.38, I 2.03, W 1.85, L 2.2, R 3.25, Y 1.88, T 3.46, H 2.05, N 3.55, K 3.77, Q 3
L10: E 3.97, A 4.18, C 3.62, D 4.09
S4: D 3.82, F 3.19, G 3.82, H 3.24, M 3.28, E 4.83, R 3.06, L 3.23, A 3, V 3.11, W 3.6, I 3.78, P 3.54, Y 3.75, K 3.08, C 3.54, T 3.64, N 2.78

Variants of: B2
Assay: as above
Details: c terminus: a fixed tail appended

Protein stability index of substitutions, site by site:
R23: F 3.71, L 3.63, I 3.72, V 3.93, G 4.1, C 3.84, N 4.11, T 4.69, Q 3.83, Y 3.98, K 4.2, A 3.34, M 3.03, H 4.09, S 4.27, E 4.63, P 3.56
E17: R 4.12, L 4.43, Y 3.15, K 3.24, Q 3.8, M 3.02, C 3.24, I 3.57, T 3.45, W 3.87, G 3.1, S 3.86, N 4.29, D 3.23, V 3.93, F 3.93, A 2.84
K22: I 3.28, G 3.27, N 4.11, R 4.21, L 3.28, E 3.43, F 4.47, M 3.92, H 3.68, Q 4.35, Y 3.43, P 3.47, T 4.15, W 3.9, C 4.19, D 3.57, A 3.74
E19: R 4.11, D 3.24, C 3.9, H 3.73, A 3.94, W 2.92, Y 2.88, S 3.69, G 3.65, V 3.48, K 3.21, P 4.28, I 3.39, F 3.36, T 4.16, Q 2.54, N 2.71, M 2.73
Y16: V 3.76, L 4.31, P 3.82, D 4.38, E 4.33, R 3.59, F 2.96, W 2.68, Q 3.52, H 3.75, M 4.22, N 4.1, C 3.51, G 2.71, T 3.89, A 4.43, K 3.75
T24: G 3.94, N 3.14, M 3.54, D 4.64, F 2.85, R 4.41, A 3.08, I 4.02, Q 4.56, W 3.62, V 3.69, E 4.57, Y 3.18, K 4.43, L 3.58, P 4.39, S 3.4
I20: N 4, S 4.25, V 4.2, C 4.07, Q 3.74, L 4.32, E 3.6, W 3.2, R 3.22, T 3.65, M 4.12, Y 3.15, H 4.07, G 4.05, A 4.88, P 3.71
R15: C 4.23, M 4.38, V 3.05, N 3.48, D 3.35, W 3.67, E 3.49, I 4.28, L 4.86, F 3.67, Q 4.26, Y 3.43, T 4.68, K 3.22, S 3.63, A 4.63, H 2.8, P 4.78
K14: R 3.51, M 3.82, Q 3.49, N 3.58, V 4.45, Y 3.47, T 3.65
N21: S 4.27, Y 3.65, D 3.8, Q 3.51, R 3.92, C 3.73, V 4.3, H 4.26, L 3.83, I 1.94, F 3.55, M 2.79, G 3.77, T 2.89, K 4.54, A 4.15
E18: A 3.54, S 3.23, T 3.93, Q 3.3, N 3.31, D 3.48, Y 3.85, F 3.42, G 3.16, L 2.91, K 3.03, W 3.11, C 4.57, P 3.98, R 4.26, I 3.07
